Test results published in patent US20070178101A1.

How the values were obtained:
[1] = biological target: Ovr110-HA on stably transfected mouse LMTK cells (human) (UniProt Q7Z7D3); assay: FACS on Ovr110-HA transfected mouse LMTK cells, secondary antibody alone
[2] = biological target: Ovr110-HA on stably transfected mouse LMTK cells (human) (UniProt Q7Z7D3); assay: FACS on Ovr110-HA transfected mouse LMTK cells, secondary antibody alone, gate I

- Mean of Fluorescence [1]: 0.48
- Percentage of cells [2]: 0.6
Substance: Donkey Anti-Mouse Ig-PE (antibody)
